Experiments:
[1] = Gel filtration, oligomeric state in solution; assay type: physicochemical; details: Superdex200 10/300 GL, 20 mM Tris pH 7.5, 150 mM NaCl, 50 μM ZnCl2, 1 mM DTT
Procedure: Supplementary Fig. 3 Superimposition of gel-filtration curves of PHD6 and ePHD6 domains of MLL3 and MLL4. Gel filtration chromatography of MLL3 ePHD6 (red), PHD6 (pink), MLL4 ePHD6 (brown), PHD6 (green) and protein molecular weight standards (blue, Bio-Rad). Samples were loaded to the Superdex200 10/300 GL (GE Healthcare) column in the buffer containing 20 mM Tris, pH 7.5, 150 mM NaCl, 50 μM ZnCl2,and1mMDTT. […]

[2] = tested on: recombinant nucleosomes (histone H3K4); experiment: In vitro histone methyltransferase (HMT) assay of MLL3/MLL4 constructs; assay type: biochemical; details: recombinant nucleosomes 0.5 μg, 2.5 μCi [3H]-SAM, 30 °C, 16 h, autoradiography (Fig. 3b, c)
Procedure: Mammalian expression plasmids encoding different fusions of MLL3 PHD and SET domains were subcloned into the pFLAG-CMV2 vector (Sigma-Aldrich, E7033) and were transiently expressed in HEK 293T cells (ATCC® ACS-4500™) by using Lipofectamine 2000 (ThermoFisher Scientific, 11668027) according to manufacturer’s protocol. Two days after transfection, cells were harvested and then lysed by mammalian lysis buffer (20 mM Tris-HCl, 137 mM NaCl, 1.5 mM MgCl2, 1 mM EDTA, 10% glycerol, 1% Triton X-100, 0.2 mM PMSF, 1 μg mL^−1 aprotinin, 2.5 μg mL^−1 leupeptin, and 1 μg mL^−1 pepstatin at pH 8.0). FLAG immunoprecipitation (FLAG IP) was performed in a similar way as described previously. In brief, total cell lysates were incubated with anti-FLAG M2 Affinity Gel (Sigma-Aldrich, A2220) in 4 °C for 5 h and were extensively washed with BC500 (20 mM Tris-HCl, 500 mM KCl, 1.5 mM MgCl2, 0.2 mM EDTA, 10% glycerol, 0.2 mM PMSF at pH 8.0). […]
HMT assay was performed according to a previously described method with minor modifications. […] The signals for HMT activity were detected by autoradiography. The input of the MLL3/4 proteins and nucleosomes were detected by mouse monoclonal anti-FLAG M2 (Sigma-Aldrich, F3165, 1:1000) and rabbit polyclonal anti-H3 antibody (Abcam, ab1791, 1:1000), respectively. […]

Molecule	oligomeric state in solution [1]	nucleosomal methyltransferase activity [2]
MLL3 ePHD6: extended PHD6 domain of MLL3 (protein, left off: GST, N-terminal, cleaved | His tag, N-terminal, cleaved) VWCRHCGATSAGLRCEWQNNYTQCAPCASLSSCPVCYRNYREEDLILQCRQCDRWMHAVCQNLNTEEEVENVADIGFDCSMCRPYMPASN	monomer in solution	
MLL4 ePHD6: extended PHD6 domain of MLL4 (protein, left off: GST, N-terminal, cleaved | His tag, N-terminal, cleaved) VSCMQCGAASPGFHCEWQNSYTHCGPCASLVTCPICHAPYVEEDLLIQCRHCERWMHAGCESLFTEDDVEQAADEGFDCVSCQPYVVKPV	dimer in solution	
MLL3_C: C terminus of MLL3 with the catalytic SET domain (protein, left off: FLAG, end not stated, kept, C terminus of MLL3 with the catalytic SET domain) DHTFRVGSLIFHTIGQLLPQQMQAFHSPKALFPVGYEASRLYWSTRYANRRCRYLCSIEEKDGRPVFVIRIVEQGHEDLVLSDISPKGVWDKILEPVACVRKKSEMLQLFPAYLKGEDLFGLTVSAVARIAESLPGVEACENYTFRYGRNPLMELPLAVNPTGCARSEPKMSAHVKRFVLRPHTLNSTSTSKSFQSTVTGELNAPYSKQFVHSKSSQYRKMKTEWKSNVYLARSRIQGLGLYAARDIEKHTMVIEYIGTIIRNEVANRKEKLYESQNRGVYMFRMDNDHVIDATLTGGPARYINHSCAPNCVAEVVTFERGHKIIISSSRRIQKGEELCYDYKFDFEDDQHKIPCHCGAVNCRKWMN		did not show any detectable nucleosomal methylation activity

Source: publication PMC6318328, “Structural insights into trans-histone regulation of H3K4 methylation by unique histone H4 binding of MLL3/4” (Nature Communications, 2019)
